Assay results reported in article PMC10958106.

Target: AP2 core GST (α2 trunk, β2 trunk and μ2 subunit) (UniProt O94973)
Assay: pull-down; AP2 core GST (or empty GST) bound to glutathione resin, incubated 3 h at 4 °C with extracts of HEK293 cells transfected with the receptor with or without HPV-16 E7; lysis buffer 50 mM HEPES pH 7.4, 150 mM NaCl, 1 mM MgCl2, 1% Triton X-100; Western blot

Chain of UniProt O94973 (O94973 whole entry, chain 1 of 3): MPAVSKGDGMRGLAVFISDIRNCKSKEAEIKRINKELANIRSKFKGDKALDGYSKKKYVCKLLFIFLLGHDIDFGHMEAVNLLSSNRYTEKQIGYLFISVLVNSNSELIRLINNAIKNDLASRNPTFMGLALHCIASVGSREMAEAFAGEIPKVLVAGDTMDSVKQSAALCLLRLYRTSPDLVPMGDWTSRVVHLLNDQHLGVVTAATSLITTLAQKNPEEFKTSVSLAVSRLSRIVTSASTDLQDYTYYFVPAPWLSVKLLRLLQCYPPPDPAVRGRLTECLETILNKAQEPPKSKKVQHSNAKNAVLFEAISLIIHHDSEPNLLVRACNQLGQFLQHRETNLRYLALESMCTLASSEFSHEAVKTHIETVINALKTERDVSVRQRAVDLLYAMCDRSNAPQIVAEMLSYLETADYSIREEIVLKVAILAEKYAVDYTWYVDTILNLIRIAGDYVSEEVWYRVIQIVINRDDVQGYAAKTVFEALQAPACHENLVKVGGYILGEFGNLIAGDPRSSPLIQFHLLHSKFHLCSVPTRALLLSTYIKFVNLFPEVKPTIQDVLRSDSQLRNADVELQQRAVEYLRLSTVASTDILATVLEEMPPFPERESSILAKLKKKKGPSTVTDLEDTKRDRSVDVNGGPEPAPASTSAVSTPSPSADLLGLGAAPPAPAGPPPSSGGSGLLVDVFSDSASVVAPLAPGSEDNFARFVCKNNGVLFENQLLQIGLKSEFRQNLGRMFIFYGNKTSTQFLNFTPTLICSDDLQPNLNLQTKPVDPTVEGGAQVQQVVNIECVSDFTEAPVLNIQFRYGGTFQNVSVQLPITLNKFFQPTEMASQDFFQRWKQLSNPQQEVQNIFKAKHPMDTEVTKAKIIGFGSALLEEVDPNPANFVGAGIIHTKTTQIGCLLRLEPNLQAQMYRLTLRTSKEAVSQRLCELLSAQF
Chain of UniProt O94973 (P63010 whole entry, chain 2 of 3, further chain): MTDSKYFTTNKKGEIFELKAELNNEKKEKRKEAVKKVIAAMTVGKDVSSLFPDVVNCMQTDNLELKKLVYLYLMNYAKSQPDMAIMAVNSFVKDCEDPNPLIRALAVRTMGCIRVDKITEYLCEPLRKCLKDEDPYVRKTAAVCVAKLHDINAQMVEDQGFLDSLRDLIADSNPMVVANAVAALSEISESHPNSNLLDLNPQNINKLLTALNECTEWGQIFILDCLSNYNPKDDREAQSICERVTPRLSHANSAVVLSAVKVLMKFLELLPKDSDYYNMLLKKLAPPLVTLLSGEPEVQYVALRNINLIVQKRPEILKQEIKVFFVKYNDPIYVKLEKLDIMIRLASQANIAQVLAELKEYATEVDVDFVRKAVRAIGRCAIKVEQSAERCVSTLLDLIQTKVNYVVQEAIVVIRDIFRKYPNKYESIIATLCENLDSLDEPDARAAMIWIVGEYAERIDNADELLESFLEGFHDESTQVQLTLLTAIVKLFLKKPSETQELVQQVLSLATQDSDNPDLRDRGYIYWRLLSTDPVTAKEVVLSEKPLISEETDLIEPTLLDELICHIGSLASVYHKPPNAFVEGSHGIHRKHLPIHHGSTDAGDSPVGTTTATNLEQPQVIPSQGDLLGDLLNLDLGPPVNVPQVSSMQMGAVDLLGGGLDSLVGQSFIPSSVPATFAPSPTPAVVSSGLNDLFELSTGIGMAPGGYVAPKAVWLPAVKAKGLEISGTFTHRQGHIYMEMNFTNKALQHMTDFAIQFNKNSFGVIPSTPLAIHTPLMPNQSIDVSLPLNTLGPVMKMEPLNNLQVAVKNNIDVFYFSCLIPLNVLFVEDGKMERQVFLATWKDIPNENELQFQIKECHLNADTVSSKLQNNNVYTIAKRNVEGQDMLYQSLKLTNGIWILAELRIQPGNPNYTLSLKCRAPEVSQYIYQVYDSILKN
Chain of UniProt O94973 (Q96CW1 whole entry, chain 3 of 3, further chain): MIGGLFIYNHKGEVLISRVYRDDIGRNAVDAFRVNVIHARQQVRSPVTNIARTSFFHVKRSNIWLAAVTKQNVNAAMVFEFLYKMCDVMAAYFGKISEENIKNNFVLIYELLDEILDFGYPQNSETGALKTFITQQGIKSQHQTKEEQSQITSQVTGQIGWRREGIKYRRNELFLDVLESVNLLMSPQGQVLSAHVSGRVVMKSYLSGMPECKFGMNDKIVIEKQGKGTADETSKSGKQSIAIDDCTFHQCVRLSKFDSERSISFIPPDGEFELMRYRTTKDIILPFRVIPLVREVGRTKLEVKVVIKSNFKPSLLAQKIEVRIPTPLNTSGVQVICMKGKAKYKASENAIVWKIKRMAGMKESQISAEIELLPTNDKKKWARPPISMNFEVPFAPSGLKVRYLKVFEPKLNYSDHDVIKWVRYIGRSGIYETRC

## HPV-16 E7-FLAG/HA (from UniProt P03129 1-98) (natural protein)
  percent reduction of the binding of CD109 to the AP2 core in the presence of E7: 50%
  percent reduction of the binding of EGFR to the AP2 core in the presence of E7: > 70%
  percent reduction of the binding of MET to the AP2 core in the presence of E7: 50%
